Experimental findings from patent publication US20030100089A1 are described below.

In data set [1] the target is Cathepsin D. In words: cell-based or functional assay.
The target of data set [2] is T1, Cathepsin G.
T1 sequence (P08311 21-244, species assumed, looked up): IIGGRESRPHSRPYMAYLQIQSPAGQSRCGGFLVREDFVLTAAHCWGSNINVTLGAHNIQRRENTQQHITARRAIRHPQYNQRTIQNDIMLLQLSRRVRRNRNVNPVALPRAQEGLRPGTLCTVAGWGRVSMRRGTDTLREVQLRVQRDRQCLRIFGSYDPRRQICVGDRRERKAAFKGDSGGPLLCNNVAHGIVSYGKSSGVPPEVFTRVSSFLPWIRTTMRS
Put plainly: cell-based or functional assay.

Data set [3] concerns the target Chymotrypsin. Put plainly: cell-based or functional assay.
Data set [4] addresses T2, MMP-7.
T2 sequence (P09237 95-267, species assumed, looked up): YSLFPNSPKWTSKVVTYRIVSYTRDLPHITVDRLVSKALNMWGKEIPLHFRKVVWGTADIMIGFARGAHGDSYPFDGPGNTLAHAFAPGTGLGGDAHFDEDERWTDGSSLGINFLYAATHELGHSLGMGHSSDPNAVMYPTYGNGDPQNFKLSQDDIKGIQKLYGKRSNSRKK
In words: cell-based or functional assay.

For data set [5], the target named is Plasmin. Put plainly: cell-based or functional assay.
Data set [6] concerns the target Trypsin. In words: cell-based or functional assay.
Data set [7] deals with porcine pancreatic elastase (PPE) (porcine) (UniProt P00772). Put plainly: cell-based or functional assay.
Chain of UniProt P00772 (P00772 27-266): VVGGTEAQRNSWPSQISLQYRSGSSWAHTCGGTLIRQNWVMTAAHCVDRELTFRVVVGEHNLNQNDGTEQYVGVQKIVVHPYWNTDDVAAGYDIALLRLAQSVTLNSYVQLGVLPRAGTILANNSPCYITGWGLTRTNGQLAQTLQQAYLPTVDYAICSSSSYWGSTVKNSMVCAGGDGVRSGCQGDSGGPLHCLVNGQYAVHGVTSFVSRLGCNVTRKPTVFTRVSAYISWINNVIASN
Data set [8] concerns the target MMP-2. In words: cell-based or functional assay.
The target of data set [9] is Papaine. In words: cell-based or functional assay.
The target of data set [10] is Thrombin. Put plainly: cell-based or functional assay.
The target in data set [11] is human leukocyte elastase (HLE) (human) (UniProt P08246). Put plainly: cell-based or functional assay.
For data set [12], the target named is p54 protein (glycoprotein of about 54 kDa isolated from shark cartilage, serine protease inhibitor).

Consider Alpha 1-antitrypsin (AAT), for which the Activity (% inhibition) in [1] is 77 % inhibition; in data set [2], 68 % inhibition; in [3], 100 % inhibition; in [4], 0 % inhibition; in data set [5], 49 % inhibition; in data set [6], 94 % inhibition. For the same molecule, the Activity (% inhibition) in data set [7] was 64 % inhibition.
Take “p54 protein (glycoprotein of about 54 kDa isolated from shark cartilage, serine protease inhibitor)”: the Activity (% inhibition) came out at 0 % inhibition in data set [1]; 0 % inhibition in data set [2]; 53 % inhibition in [3]; 0 % inhibition in data set [8]; 0 % inhibition in [4]; 8 % inhibition in data set [9]. Besides, the Activity (% inhibition) was determined as 49 % inhibition in data set [5]; 0 % inhibition in data set [10]; 30 % inhibition in data set [6]; 42 % inhibition in data set [11]; 84 % inhibition in [7].

B1: human leukocyte elastase (HLE) (protein)
chain: IVGGRRARPHAWPFMVSLQLRGGHFCGATLIAPNFVMSAAHCVANVNVRAVRVVLGAHNLSRREPTRQVFAVQRIFENGYDPVNLLNDIVILQLNGSATINANVQVAQLPAQGRRLGNGVQCLAMGWGLLGRNRGIASVLQELNVTVVTSLCRRSNVCTLVRGRQAGVCFGDSGSPLVCNGLIHGIASFVRGGCASGLYPDAFAPVAQFVNWIDSIIQ
As to B1, in data set [12], the “elastase assay (fluorescent elastin substrate)” value is recorded as “The inhibition of elastase by the p54 protein was also validated with a human leukocyte elastase”.
